Assay results taken from US20080113383A1, “Hif Prolyl Hydroxylase Activity Assay” (Fibro Gen, Inc., priority 2004, published 2008).
Where “and” joins values, the source holds several entries; their conditions need not be identical. Identical values can stand only once. Where no end group is shown, it is not given here. [ ]: non-standard residue; d: D form. ΔPro = O=C(O)[C@@H]1C=CCN1; Aze = O=C(O)[C@@H]1CCN1

What was measured:
Type in all cases: biochemical
EGLN2 = EGLN2 (Homo sapiens, UniProt Q96KS0); assay: Standard reaction (I): EGLN enzyme activity with hydroxylatable peptide substrate, 14CO2 release from 2-oxo[1-14C]glutaric acid; conditions: Table 1; enzyme activity relative to control peptide DTD20; 37° C., 20 minutes, pH 7.4
EGLN2, sequence (Q96KS0 whole entry): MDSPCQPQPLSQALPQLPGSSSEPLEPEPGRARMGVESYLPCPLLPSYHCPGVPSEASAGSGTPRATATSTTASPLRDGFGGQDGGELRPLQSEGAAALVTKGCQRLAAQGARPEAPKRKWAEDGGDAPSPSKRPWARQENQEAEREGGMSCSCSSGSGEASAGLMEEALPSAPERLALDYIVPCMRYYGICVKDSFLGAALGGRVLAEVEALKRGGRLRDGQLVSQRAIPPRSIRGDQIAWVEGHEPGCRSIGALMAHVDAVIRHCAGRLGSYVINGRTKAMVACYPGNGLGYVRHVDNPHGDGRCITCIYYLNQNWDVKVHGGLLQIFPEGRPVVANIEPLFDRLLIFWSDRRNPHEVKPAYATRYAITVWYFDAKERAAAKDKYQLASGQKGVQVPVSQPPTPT
Source text: (§1) Enzyme activity can be measured by monitoring the consumption of one or more reaction substrates, or accumulation of one or more reaction products. For example, enzyme activity in either the standard reaction (I) or the modified reaction (II) can be measured using a modified version of a method described by Kivirikko and Myllyla (1982, Methods Enzymol 82:245-304), which is based on the decarboxylation of 2-oxo[1-^14C]glutaric acid. In this method, radioactive ^14CO2 produced during the reaction is captured on base-impregnated filter papers and the captured radioactivity determined by liquid scintillation counting. In a particular embodiment, enzyme activity in standard reaction (I) was measured as described in Example 2 (infra).
(§2) In DLD19, methionine (M) residues were changed to alanine (A) residues due to potential oxidation of methionine during the assay reaction. Peptides used in the assay may additionally contain N-terminal and/or C-terminal blocking groups, e.g., N-terminal acetyl groups, C-terminal amide groups, etc. Enzyme activity in the presence of substrate peptides is provided supra as percent enzyme activity relative to enzyme activity in the presence of control peptide DTD20.
(§3) In all experiments, percent enzyme activity, e.g., as measured by substrate turnover, was less than 30% to insure all data obtained were in the linear range. Enzyme activity in standard reaction (I) was measured in a reaction volume of 1 mL containing EGLN enzyme preparation (10-400 μL), 0.05 μmole hydroxylatable peptide substrate, 0.1 μmole of 2-oxo[1-^14C]glutaric acid (160,000 dpm), 1 μmole of ascorbic acid, 60 μg of catalase and 50 μmole of HEPES buffer adjusted to pH 7.4 at 25° C. Optionally, 0.04 μmole FeSO4 was also be added to the reaction mix. Reactions were carried out at 37° C. for 20 minutes. In various reactions, ascorbate was replaced by 0.1 to 15 mM potassium ferrocyanide. Results are provided in Table 1 (supra) and FIGS. 3 and 4.

EGLN1 [1] = biological target: T1, EGLN1 (Homo sapiens, UniProt Q9GZT9); assay: as above; conditions: for specificity of peptide for EGLN1, EGLN2 and EGLN3 compared: standard reaction (I) peptides, from Table 1 and FIGS. 3, 4
T1 sequence (Q9GZT9 whole entry): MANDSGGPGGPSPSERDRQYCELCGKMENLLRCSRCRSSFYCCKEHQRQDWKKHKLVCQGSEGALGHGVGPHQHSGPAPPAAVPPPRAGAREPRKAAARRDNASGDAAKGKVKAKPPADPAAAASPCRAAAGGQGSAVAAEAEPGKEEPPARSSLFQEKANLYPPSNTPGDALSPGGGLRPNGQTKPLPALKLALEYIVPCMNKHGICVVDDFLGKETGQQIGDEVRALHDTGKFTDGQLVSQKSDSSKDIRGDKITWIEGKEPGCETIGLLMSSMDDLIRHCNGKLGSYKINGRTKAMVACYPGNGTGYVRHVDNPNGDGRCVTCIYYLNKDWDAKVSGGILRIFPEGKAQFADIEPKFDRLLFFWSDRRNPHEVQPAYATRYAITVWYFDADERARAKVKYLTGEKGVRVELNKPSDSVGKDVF
Source text: as §1, §2, §3

EGLN3 = EGLN3 (Homo sapiens, UniProt Q9H6Z9); assay: as above
EGLN3, sequence (Q9H6Z9 whole entry): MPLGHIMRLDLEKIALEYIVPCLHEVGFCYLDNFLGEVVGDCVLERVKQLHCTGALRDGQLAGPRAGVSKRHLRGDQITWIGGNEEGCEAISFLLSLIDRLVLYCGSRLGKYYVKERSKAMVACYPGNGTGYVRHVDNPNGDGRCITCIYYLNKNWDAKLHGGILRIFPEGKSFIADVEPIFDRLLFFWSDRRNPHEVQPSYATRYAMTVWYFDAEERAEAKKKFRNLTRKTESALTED
Source text: as §1, §2, §3

EGLN1 [2] = biological target: T1, EGLN1; assay: Modified reaction (II): EGLN enzyme activity with non-hydroxylatable proline-analog peptide and reducing agent; conditions: modified reaction (II) peptides, from Tables 3, 4 and FIGS. 3, 4
Source text: The peptides shown in Table 3, which retain measurable activity in the present assay, are specifically contemplated for use in assays disclosed herein. These peptides are used in a reaction additionally requiring co-substrate 2-oxoglutarate and a reducing agent, e.g., ascorbate; an EGLN enzyme, and oxygen, as described below. The reaction may also include Fe^2+. The reaction proceeds according to the modified reaction (II), in which 2-oxoglutarate is converted to succinate and carbon dioxide, and the reducing agent is subsequently oxidized, e.g., ascorbate is oxidized to dehydroascorbate. […]
In still other embodiments, enzyme activity within the modified reaction (II) may be measured by disappearance of the reduced form of the reducing agent or appearance of the oxidized form of the agent. […] For example, when ascorbate is used in modified reaction (II), disappearance of ascorbate and/or appearance of dehydroascorbate may be measured, e.g., using HPLC. In particular embodiments, ascorbate may be added to modified reaction (II) in limiting quantity, and ascorbate is regenerated during the reaction with concomitant oxidation of NADH to NAD^+ using a modification of the method described by Diliberto and Allen (1981, J Biol Chem 256:3385-3393). […] HIF-PH activity is measured indirectly by consumption of NADH, which produces a reduction in absorbance at a wavelength of 340 nm. […]

[3] = Table 1, enzyme activity relative to control peptide DTD20, 37° C., 20 minutes, pH 7.4

| Substance | specificity of peptide for EGLN1, EGLN2 and EGLN3 compared (EGLN1 [1]) | hydroxylation of peptide by EGLN1 (EGLN1 [1]) | hydroxylation of peptide by EGLN3 (EGLN3) | further results |
| --- | --- | --- | --- | --- |
| 45 (DTDLDTEALAPYIPADDDFQ) [compound 45] |  |  |  | Activity (%) EGLN2 (EGLN2): 20.49% and 18.04%; Activity (%) EGLN1 (EGLN1 [1]; [3]): 25.67% and 23.36%; Activity (%) EGLN3 (EGLN3; [3]): 64.55% and 60.23% |
| DTDLDFEALApYIPADDDFQ (DTDLDFEALAPYIPADDDFQ; not fully specified; printed as DTDLDFEALApYIPADDDFQ) [SEQ ID NO 19] | higher specificity for EGLN3 than for EGLN1 and EGLN2 |  |  |  |
| DTDLDIEALApYIPADDDFQ (DTDLDIEALAPYIPADDDFQ; not fully specified; printed as DTDLDIEALApYIPADDDFQ) [SEQ ID NO 24] | higher specificity for EGLN3 than for EGLN1 and EGLN2 |  |  |  |
| DTDLDLEALA4YIPADDDFQ (DTDLDLEALA[ΔPro]YIPADDDFQ) [SEQ ID NO 62, 4 = 3,4-dehydroproline in place of the hydroxylated proline] |  |  |  | specificity of proline-analog peptide for EGLN1, EGLN2 and EGLN3 compared (EGLN1 [2]): higher specificity for EGLN1 and EGLN2 than for EGLN3 |
| DTDLDLEALA8YIPADDDFQ (DTDLDLEALA[Aze]YIPADDDFQ) [SEQ ID NO 63, 8 = L-azetidine-2-carboxylate in place of the hydroxylated proline] |  |  |  | specificity of proline-analog peptide for EGLN1, EGLN2 and EGLN3 compared (EGLN1 [2]): higher specificity for EGLN3 than for EGLN1 and EGLN2 |
| DTDLDLEARApYIPADDDFQ (DTDLDLEARAPYIPADDDFQ; not fully specified; printed as DTDLDLEARApYIPADDDFQ) [SEQ ID NO 15] | higher specificity for EGLN1 and EGLN2 than for EGLN3 |  |  |  |
| DTDLDMEALApYIPADDDFQ (DTDLDMEALAPYIPADDDFQ; not fully specified (residue 11); printed as DTDLDMEALApYIPADDDFQ) [SEQ ID NO 13] | higher specificity for EGLN3 than for EGLN1 and EGLN2 |  |  |  |
| DTDLDWEAVSpYIPADDDFQ (DTDLDWEAVSPYIPADDDFQ; not fully specified (residue 11); printed as DTDLDWEAVSpYIPADDDFQ) [SEQ ID NO 91] |  | readily hydroxylated | readily hydroxylated |  |
| DTDLDWEMVApYIPADDDFQ (DTDLDWEMVAPYIPADDDFQ; not fully specified (residue 11); printed as DTDLDWEMVApYIPADDDFQ) [SEQ ID NO 92] |  | readily hydroxylated | readily hydroxylated |  |
| DTDLDWEMVSpYIPADDDFQ (DTDLDWEMVSPYIPADDDFQ; not fully specified (residue 11); printed as DTDLDWEMVSpYIPADDDFQ) [SEQ ID NO 90] |  | readily hydroxylated | readily hydroxylated |  |
| DTDLDYEMIApYIPADDDFQ (DTDLDYEMIAPYIPADDDFQ; not fully specified (residue 11); printed as DTDLDYEMIApYIPADDDFQ) [SEQ ID NO 89] |  | readily hydroxylated | readily hydroxylated |  |
